Measured values from paper PMC6838084, “Direct, gabapentin-insensitive interaction of a soluble form of the calcium channel subunit α2δ-1 with thrombospondin-4” (Scientific Reports, 2019).

Target: the molecule itself
Assay: SDS-PAGE and immunoblot without and with DTT; purified proteins separated under non-reducing and reducing conditions; composite agarose/polyacrylamide gel for intact TSPs; oligomers held by interchain disulphide bonds

Row | Protein | stoichiometry N
1 | thrombospondin-4 (TSP-4), recombinant full-length rat, N-terminal double strep II-tag (natural protein, thrombospondin-4, rat, called full-length; the PCR product lacks the natural signal peptide and was cloned in frame with the BM-40 signal peptide; A thrombin cleavage site lies between the tag and the protein; Pentamer held by interchain disulphide bonds; glycosylated; also called full-length pentameric TSP-4; source: HEK293-EBNA, secreted, purified from culture supernatant (streptactin-sepharose)) not shown | 5
2 | cartilage oligomeric matrix protein (COMP, TSP-5), recombinant full-length rat, N-terminal double strep II-tag (natural protein, cartilage oligomeric matrix protein, rat, called full-length; the PCR product lacks the natural signal peptide and was cloned in frame with the BM-40 signal peptide; A thrombin cleavage site lies between the tag and the protein; Pentamer held by interchain disulphide bonds; also called TSP-5/COMP; source: HEK293-EBNA, secreted, purified from culture supernatant (streptactin-sepharose)) not shown | 5
3 | thrombospondin-2 (TSP-2), recombinant full-length murine, N-terminal double strep II-tag (natural protein, thrombospondin-2, mouse, called full-length; the PCR product lacks the natural signal peptide and was cloned in frame with the BM-40 signal peptide; A thrombin cleavage site lies between the tag and the protein; Trimer held by interchain disulphide bonds; heavily glycosylated; source: HEK293-EBNA, secreted, purified from culture supernatant (streptactin-sepharose)) not shown | 3
